From patent US20080138837A1, “Methods and kits for detecting and measuring ADAMTS13/FXI complexes” (priority 2004, published 2008)
Numbered stars: 1 amine (or outer) side, 2 acyl side, 3 side chain; on linkers, the order of the positions; unused ones are H or OH. * marks the point of attachment. DABCYL = CN(C)c1ccc(/N=N/c2ccc(C(=O)*)cc2)cc1; EDANS = O=S(=O)(O)c1cccc2c(NCCN*)cccc12; AMC = Cc1cc(=O)oc2cc(N*)ccc12; Suc = O=C(CCC(=O)[*:2])[*:1]

What was measured:
ADAMTS13/FXI complexes = target: T1, ADAMTS13/FXI complexes (Homo sapiens, UniProt P03951+Q76LX8); assay: Formation of ADAMTS13/FXI complexes in FXI-deficient plasma after addition of FXI (ELISA); type: binding; settings: FXI-deficient plasma diluted 1:8 in ECD, 30 minutes, FIG. 25
T1 construct: addition of FXI (Enzyme Research Lab, Canada) to FXI-deficient plasma diluted 1:8 in ECD; purchased Enzyme Research Lab, Canada; host or cells: FXI purchased; ADAMTS13 endogenous in plasma from patients with congenital FXI deficiency
Description: An assay was developed for measuring the presence of ADAMTS13/FXI complexes by ELISA analysis. A standard curve was generated using PNP (Saturn Biomedical), diluted 1:4 in ECD buffer (PBS/3% BSA/gentamicin), and then serially diluted 1:2 in ECD buffer. Assays were performed in duplicate, using 100 μl of each standard dilution in Immulon 4 HBX 96-well microtiter plates (ThermoLabsystems, Franklin, Mass.) that were coated with goat anti-human ADAMTS13 antibody raised against a synthetic peptide sequence in the CUB1 domain (SC21510; Santa Cruz Biotechnology, Santa Cruz, Calif.) at a concentration of 1 μg/ml in 3-(N-morpholino)propanesulfonate (MOPS) coating buffer (0.1 M MOPS, 0.15 M NaCl, 0.05 M CaCl2, 0.066 M Trehalose, 0.02% NaN3, pH 7.4). Microtiter plates were blocked with SuperBlock (Pierce Chemical Co., Indianapolis, Ind.).
Standards and diluted samples were incubated in coated microwells for 2 hours at room temperature, with mixing. […] The optical density of the mixture was then read in a spectrophotometer at 450 nm.
Formation of ADAMTS13/FXI complexes was measured after addition of FXI (Enzyme Research Lab, Canada) to FXI-deficient plasma diluted 1:8 in ECD. […] The plasma containing newly formed ADAMTS13/FXI complexes were then added to anti-ADAMTS13 antibody-coated microwells and quantified, as described in Example 16.

[1] = tested on: form of ADAMTS13 found on platelets; assay: ADAMTS13 activity on isolated platelets using a FRET substrate; type: biochemical, human; settings: 8 μg/ml substrate, 37° C., Ex 360 nm/Em 440 nm, FIG. 4
Description: (§1) Blood was collected by venopuncture into collection tubes containing 0.12 M sodium citrate, an anti-coagulant. The citrated blood was centrifuged at 700 rpm for 10 minutes. The supernatant was removed and saved as the platelet rich plasma (PRP) fraction. The PRP was centrifuged at 10,000 rpm for 20 minutes. The supernatant was removed and saved as the platelet poor plasma (PPP) fraction. The pellet contained the platelets, which were washed by resuspending in 10 mM Tris-HCl pH 8.0 buffer and centrifuging at 10,000 rpm for 10 minutes. The isolated platelets were resuspended in buffer and used in experiments.
ADAMTS13 activity was measured using a fluorescent substrate attached to a donor moiety and an acceptor moiety that functions by fluorescence resonance energy transfer (FRET). The ADAMTS13 selective substrate, NH2-Arg-Lys(DABCYL)-NLVYMVTGD(EDANS)-Arg-COOH, was used in this example. […] The intact peptidyl substrate has low fluorescence, due to quenching of the […]. Cleavage of the substrate between the tyrosine and methionine of the peptide sequence results in an increase in fluorescence.
Isolated platelets in 10 mM Tris-HCl pH 8.0 assay buffer were incubated with a final concentration of 8 μg/ml of the FRET substrate at 37° C. The fluorescence was measured in a spectrofluorometric plate reader (Ex 360 nm/Em 440 nm). […]

[2] = target: T2, recombinant ADAMTS13 (recADAMTS13) (Homo sapiens, UniProt Q76LX8); assay: Recombinant ADAMTS13 activity in tissue culture supernatants using fluorescent substrate; type: biochemical; settings: 0.8 mM substrate, 50 mM Tris-HCl pH 8.0, FIG. 5
T2 construct: made in house; host or cells: HEK 293 cells; crude culture supernatant supplied by Dr. David Ginsburg, University of Michigan
T2 sequence (Q76LX8 75-1427): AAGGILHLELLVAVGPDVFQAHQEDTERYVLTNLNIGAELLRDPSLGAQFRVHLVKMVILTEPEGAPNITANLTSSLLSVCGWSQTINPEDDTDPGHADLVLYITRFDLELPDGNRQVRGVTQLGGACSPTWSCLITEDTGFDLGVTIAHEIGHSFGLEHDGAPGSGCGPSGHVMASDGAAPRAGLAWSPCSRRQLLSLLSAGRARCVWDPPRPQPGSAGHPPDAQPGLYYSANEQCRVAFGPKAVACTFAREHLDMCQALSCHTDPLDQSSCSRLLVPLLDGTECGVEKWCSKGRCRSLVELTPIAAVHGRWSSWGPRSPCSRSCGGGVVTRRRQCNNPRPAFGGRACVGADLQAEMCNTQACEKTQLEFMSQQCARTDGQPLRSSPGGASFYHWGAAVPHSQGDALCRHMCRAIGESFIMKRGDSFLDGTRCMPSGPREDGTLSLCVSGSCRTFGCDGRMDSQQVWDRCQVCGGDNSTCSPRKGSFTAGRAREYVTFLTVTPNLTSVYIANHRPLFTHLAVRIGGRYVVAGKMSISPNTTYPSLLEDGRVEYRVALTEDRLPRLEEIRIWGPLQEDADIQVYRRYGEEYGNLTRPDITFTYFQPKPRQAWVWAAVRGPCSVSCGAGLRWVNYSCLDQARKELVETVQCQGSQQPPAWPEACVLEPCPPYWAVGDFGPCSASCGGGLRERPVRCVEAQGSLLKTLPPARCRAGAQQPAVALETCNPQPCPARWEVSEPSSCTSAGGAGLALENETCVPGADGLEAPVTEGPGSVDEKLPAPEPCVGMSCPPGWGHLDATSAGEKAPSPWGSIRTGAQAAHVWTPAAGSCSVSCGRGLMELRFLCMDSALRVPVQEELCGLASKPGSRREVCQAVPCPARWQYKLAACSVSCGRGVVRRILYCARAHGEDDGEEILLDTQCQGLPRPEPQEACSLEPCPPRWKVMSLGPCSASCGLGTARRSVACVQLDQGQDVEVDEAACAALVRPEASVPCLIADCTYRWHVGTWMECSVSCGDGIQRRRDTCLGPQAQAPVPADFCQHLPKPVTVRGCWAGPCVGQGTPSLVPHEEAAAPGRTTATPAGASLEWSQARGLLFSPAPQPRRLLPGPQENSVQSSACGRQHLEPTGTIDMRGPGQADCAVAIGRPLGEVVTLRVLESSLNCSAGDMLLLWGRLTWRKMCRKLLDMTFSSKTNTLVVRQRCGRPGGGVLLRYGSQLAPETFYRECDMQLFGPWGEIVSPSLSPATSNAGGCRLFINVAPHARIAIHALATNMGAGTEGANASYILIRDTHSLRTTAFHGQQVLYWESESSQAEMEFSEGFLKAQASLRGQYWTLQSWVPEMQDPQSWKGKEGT
Text: HEK 293 cells were transfected with a vector encoding ADAMTS13. Cell culture supernatant from the transfected HEK 293 cells, containing recombinant ADAMTS13, was generously provided by Dr. David Ginsburg (University of Michigan, Mich.). Mock transfected cell supernatant with no recombinant ADAMTS13 was also provided as a control.
Fluorescence signals were compared between tissue culture supernatant from HEK 293 cells transfected with a viral vector coding for recombinant ADAMTS13 (“recADAMTS13”) and supernatant from mock transfected HEK 293 cells, as a control. (Culture supernatants were supplied by Dr. David Ginsburg, University of Michigan.) Varying amounts of the two culture supernatants were added to 0.8 mM Suc-Leu-Leu-Val-Tyr-AMC (SEQ ID NO: 2) fluorescent substrate in 50 mM Tris-HCl pH 8.0 in a total volume of 100 μl.

ADAMTS13 = ADAMTS13 activity in PRP using peptidyl substrates; type: biochemical, human; settings: 0.8 mM substrate, 37° C., FIG. 3
Description: as §1
As discussed above, Furlan et al. reported that some peptidyl-pNA moieties, such as XLY-pNA and XVY-pNA, were not substrates for ADAMTS13. We prepared LVY-pNA and tested it for its ability to be cleaved by ADAMTS13. The results shown in FIG. 2 confirm the findings of Furlan et al., i.e., LVY-pNA was not cleaved by ADAMTS13.
In order to determine the effect of modifying the length of the peptide sequence conjugated to the AMC fluorochrome, normal PRP (20 μl) was incubated at 37° C. with a final concentration of 0.8 mM Suc-LLVY-AMC or LVY-AMC in 10 mM Tris-HCl pH 8.0 buffer in total volume of 200 μl. Fluorescence was measured using a microtiter fluorophotometric plate reader (Ex 360 nm/Em 460 nm).

human FXI = human FXI (Homo sapiens, UniProt P03951); assay: Binding of recombinant ADAMTS13 to FXI-coated plates (ELISA); settings: FXI coated at 1 μg/ml, 1 hour, detection anti-ADAMTS13 TSP5-7 rabbit polyclonal, OD 450 nm, FIG. 22
Description: Binding of recADAMTS13 to immobilized FXI was measured using microplates coated with human FXI at a concentration of 1 μg/ml. RecADAMTS13 in solution was added to the FXI-coated microwells and incubated for 1 hour. ADAMTS13/FXI complexes were measured using ELISA. Specifically, after incubation with recADAMTS13, plates were washed with PBS +1% Tween, followed by incubation for 1 hour with anti-ADAMTS13 TSP5-7 rabbit polyclonal antibodies (1 μg/ml). Plates were washed again in PBS+1% Tween, followed by addition of a murine anti-rabbit IgG antibody conjugated to HRP. The detection antibody was incubated for an hour at room temperature. After washing the excess detection antibody from the plates, the TMB substrate was added, incubated for 10 minutes, after which 0.5 M sulfuric acid was added to terminate the reaction. The optical density of the mixture was measured at 450 nm on a spectrophotometer (FIG. 22).

“FXI: Factor XI zymogen (Enzyme Research Lab, Canada)” was tested, and the “ADAMTS13/FXI complexes formed upon addition of FXI” value (ADAMTS13/FXI complexes) was “increasing amounts of ADAMTS13/FXI complexes were formed”.

With “NH2-Arg-Lys-(DABCYL)-Asn-Leu-Val-Tyr-Met-Val-Thr-Gly-Asp-(EDANS)-Arg-COOH (H-RK(DABCYL)NLVYMVTGD(EDANS)R-OH; SMILES CSCC[C@H](NC(=O)[C@H](Cc1ccc(O)cc1)NC(=O)[C@@H](NC(=O)[C@H](CC(C)C)NC(=O)[C@H](CC(N)=O)NC(=O)[C@H](CCCCNC(=O)c1ccc(/N=N/c2ccc(N(C)C)cc2)cc1)NC(=O)[C@@H](N)CCCNC(=N)N)C(C)C)C(=O)N[C@H](C(=O)N[C@H](C(=O)NCC(=O)N[C@@H](CC(=O)NCCNc1cccc2c(S(=O)(=O)O)cccc12)C(=O)N[C@@H](CCCNC(=N)N)C(=O)O)[C@@H](C)O)C(C)C) [FRET substrate made for American Diagnostica Inc]” the “fluorescence on incubation of platelets with FRET substrate (cleavage by platelet ADAMTS13)” value [1] was “increased fluorescence over time”.

For “Suc-Leu-Leu-Val-Tyr-AMC (Suc-LLVY-{AMC}; SMILES Cc1cc(=O)oc2cc(NC(=O)[C@H](Cc3ccc(O)cc3)NC(=O)[C@@H](NC(=O)[C@H](CC(C)C)NC(=O)[C@H](CC(C)C)NC(=O)CCC(=O)O)C(C)C)ccc12) [Suc-LLVY-AMC, fluorogenic peptidyl substrate from Bachem Bioscience Inc]”, the “cleavage of fluorescent substrate by recADAMTS13 in supernatant of transfected HEK 293 cells versus mock” value [2] was “cleavage of the substrate by recADAMTS13”, the “cleavage of peptidyl-AMC substrate by ADAMTS13 in PRP” value (ADAMTS13; normal PRP 20 μl, 10 mM Tris-HCl pH 8.0, Ex 360 nm/Em 460 nm) was “cleaved” and the “fluorescence signal over time as compared to the LVY-AMC substrate” value (ADAMTS13; normal PRP) was “higher signal over time”.

With “recADAMTS13: recombinant ADAMTS13 in culture supernatant of transfected HEK 293 cells” the “complex formation with immobilized FXI” value (human FXI) was “stable complex”.
